Earlier results, collected in paper PMC10643566, “Insights into the mechanism of SARS-CoV-2 main protease autocatalytic maturation from model precursors” (Communications Biology, 2023).

Biological target: MPro (SARS-CoV-2) (UniProt P0DTD1)
Details: cited from earlier work

In the case of MPro (from UniProt P0DTD1), the Kd is given as 1300 nM.
